In paper PMC4022735, “Structural and Biochemical Characterization Reveals LysGH15 as an Unprecedented “EF-Hand-Like” Calcium-Binding Phage Lysin” (PLoS Pathogens, 2014):

Molecular target: T1, LysGH15 SH3b domain (residues 368–495) (staphylococcal phage GH15, 15N (and/or 13C) labelled for NMR; N-terminal SNA tag remnant omitted (PDB 2MK5 entity residues 4-131 = 368-495))
T1 chain: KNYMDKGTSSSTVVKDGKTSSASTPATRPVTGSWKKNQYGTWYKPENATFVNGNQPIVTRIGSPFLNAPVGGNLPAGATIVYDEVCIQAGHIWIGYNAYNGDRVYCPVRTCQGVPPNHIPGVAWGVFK
Test: NMR titration; 1H-15N HSQC spectra of 15N-labelled SH3b on addition of the peptide (100 mM stock in the buffer of the SH3b sample); 298 K; KD from a fit of the chemical shift perturbations; fast exchange
Details: both partners purified

B1: peptide “AGGGGG” (peptide)
peptide: AGGGGG
notes: synthetic peptide used as previously reported for the SH3b domain of ALE-1; Not a stretch of a named natural protein; also called the peptide; source: synthetic peptide (Sangon Biotech (Shanghai) Co., Ltd.)
- Kd: ~3000 µM
